In paper PMC4533228 (Cell Reports, 2015):

Target: T1, polyUb-E6AP (resin-bound E6AP autoubiquitinated with K48-linked polyubiquitin chains) (UniProt Q05086 1-875; P0CG48 1-76, K48-linked polyubiquitin chains of undefined length attached by autoubiquitination; sites not stated | ubiquitins joined to each other by K48 isopeptide linkages and to E6AP; chain length undefined)
T1 construct: HECT E3 ligase E6AP; ubiquitin, the mature 76-residue protein, wild type; Covalent conjugate held on resin; also called K48-polyUb conjugates; polyubiquitinated E6AP; source: E3 enzyme expressed in E. coli and purified
Assay: pull-down; resin-bound polyUb-E6AP and polyUb-Ube2SΔ incubated with 100 nM purified Rpn10-UIM, hHR23A or hHR23B for 30 min at 4°C, washed; bound proteins by immunoblot for His (Rpn10) or hHR23A/B
Conditions: both partners purified

fold binding relative to K11 chains (polyUb-Ube2SΔ), ImageJ quantification: ~4 fold
B1: recombinant Ub-interacting motif (UIM) of Rpn10 (domain or fragment)
chain: MLGLGASDFEFGVDPSADPELALALRVSMEEQRQRQEEEARRAAAASAAEAGIATTGTEDSDDALLKMTISQQEFGRTGLPDLSSMTEEEQIAYAMQMSLQGAEFGQAESA
